Measurements published in patent US20180280504A1, “GLYCAN-INTERACTING COMPOUNDS AND METHODS OF USE” (SIAMAB THERAPEUTICS, INC., priority 2014, published 2018).

Experiments:
[1] = tested on: OV-90 cells; assay: Cell viability assay with secondary antibody-drug conjugate (2° ADC), OV-90; type: cell-based; conditions: with 2° ADC Fab αMFc-CL-MMAF
Description: Cell viability assays are performed to screen anti-STn antibodies of the present invention in the presence and absence of secondary antibody-drug conjugates (2° ADCs). The purpose of the screen is to identify the ability of each anti-STn antibody to inhibit cell growth. Antibodies with potent cell growth inhibition are used to design direct antibody-drug conjugates (ADCs). Using such secondary antibody-drug conjugates (2° ADCs) in cell-based cytotoxic assays can quickly pre-screen many ADC candidates against tumor cells. Based on the assay, a naked antibody candidate is directly added to cells in the presence of a 2° ADC. Internalization of the mAb/2° ADC complex into cells that express a high density of the targeted antigen can achieve a dose-dependent drug release within the cells, causing a cytotoxic effect to kill the cells (e.g., tumor cells), while cells expressing a low density of the targeted antigen are not affected (e.g., normal cells).
To perform cell viability assays, cell lines described in the present application (MDA-MB-231 parental, MDA-MB-231-STn+, and OV-90) are prepared and cultured for the assays. The cell culture is optimized for cell density by plating different densities of cells (e.g., 2,000, 4,000 and 7,500 per well) on a 96-well plate and observing the cell growth for 96 hours. The plating condition in which cells reach around 90% confluence at the end of the 96 hours is identified and the optimal cell number is then used in the final viability assay.
Duplicate or triplicate cell plates for each cell line are used for testing each antibody candidate.
For cell viability assays, data points are collected for each antibody candidate with duplicates for each data point. […]
Cell viabilities are measured by Cell-Titer Glo luminescence based assays.
Three anti-STn monoclonal antibodies (anti-STn antibodies S3F, 7G9 and 2D4) and an anti-EGFR monoclonal antibody LA22 were tested for internalization. […] Cell viability was then measured using CellTitreGlo Luminescent Cell Viability Assay (Promega, Madison, Wis.).

[2] = tested on: MDA-MD-231 STn cells; assay: Antibody internalization by fluorescence microscopy cell counts, STn+ cells; type: cell-based, human; conditions: for Net cell counts of cells showing positive internalization: 10 μg/ml antibody; for level of internalization (comparison of antibodies): microscopy
Description: 6-well culture dishes were prepared with collagen-coated coverslips in the center of 4 wells of each dish. Wells were seeded with either 10^5 cells/well of MDA-MD-231 cells or with 10^6 cells/well of MDA-MD-231 STn cells (expressing STn) and cultured for 24 hours.
10 μg/ml antibody solutions were prepared in cell culture media. A separate solution was prepared for each of LA22 antibody (EMD Millipore, Burlington, Mass.) as a positive control for cell surface binding, S3F antibody (internal reagent) as a positive control for STn binding, 8C11, 2D4, 7G9, 10A5 and GB26.16 (QED Bioscience, San Diego, Calif.) as a negative control. Media were removed from wells and 100 μl of each antibody solution was added to separate coverslips. Coverslips were covered with parafilm and incubated for 30 minutes at 4° C. to allow antibody binding. Antibody solutions were removed by washing and fresh media was added to each well. Cells were incubated at 37° C. for 15, 30, 60 or 240 min to allow for antibody internalization.
After incubation, cells were prepared for microscopy. Cells were washed with PBS and fixed with paraformaldehyde fixation buffer (PFA) containing 3% paraformaldehyde and 2% sucrose in PBS for 15 minutes at room temperature. Cells were rinsed again in PBS and treated with blocking buffer made up of PBS with 1% bovine serum albumin (BSA) or with permeabilization buffer made up of blocking buffer with 0.1% TX-100. Cells were incubated in for 30 min at room temperature, rinsed in PBS and treated with secondary antibody (ALEXA FLUOR® 488-labeled goat-anti-mouse IgG) for 2 hours at room temperature. Cells were rinsed again in PBS and treated with DAPI nuclear stain for 5 min at room temperature in the dark. Cells were rinsed again in PBS and mounted for fluorescence microscopy.

B1: S3F: 3F1 variable domains combined with IgG2a constant domains; heavy chain SEQ ID NO: 63, light chain SEQ ID NO: 64 (antibody)
heavy: QVQLQQSDAELVKPGASVKISCKASGYTFTDHAIHWVKQKPEQGLDWIGYISPGNGDIKYNEKFKDKVTLTADKSSSTACMHLNSLTSEDSAVYFCKRSLLALDYWGQGTTLTVSSAKTTAPSVYPLAPVCGDTTGSSVTLGCLVKGYFPEPVTLTWNSGSLSSGVHTFPAVLQSDLYTLSSSVTVTSSTWPSQSITCNVAHPASSTKVDKKIEPRGPTIKPCPPCKCPAPNLLGGPSVFIFPPKIKDVLMISLSPIVTCVVVDVSEDDPDVQISWFVNNVEVHTAQTQTHREDYNSTLRVVSALPIQHQDWMSGKEFKCKVNNKDLPAPIERTISKPKGSVRAPQVYVLPPPEEEMTKKQVTLTCMVTDFMPEDIYVEWTNNGKTELNYKNTEPVLDSDGSYFMYSKLRVEKKNWVERNSYSCSVVHEGLHNHHTTKSFSRTPGK
light: DIVMTQSHKFMSTSVGDRVSITCKASQDVGTNIAWYQQKPGRSPKVLIYSASTRHTGVPDRFTGSGSGTDFTLTISNVQSEDLTDYFCQQYSSFPLTFGVGTKLELKRADAAPTVSIFPPSSEQLTSGGASVVCFLNNFYPKDINVKWKIDGSERQNGVLNSWTDQDSKDSTYSMSSTLTLTKDEYERHNSYTCEATHKTSTSPIVKSFNRNEC
B1 was tested. Which “activity in OV-90 cells” value [1] did it give?
Its value is “modest activity”.

What about the “Net cell counts of cells showing positive internalization” value (from here on “Net cell counts”) ([2]; 15 min at 37° C.) of the same molecule?
The value was 426.

And the “Net cell counts” value ([2]; 30 min at 37° C.)?
Its value is 410.

And the “Net cell counts” value ([2]; 60 min at 37° C.)?
The value was 350.

What about the “Net cell counts” value ([2]; 4 hr at 37° C.) of the same molecule?
Its value is 259.

What about the “Net cell counts” value ([2]; 4 hr, no perm) of the same molecule?
The value was 276.

B2: 10A5: anti-STn mouse monoclonal, IgG2c κ, from mouse #4406; VH SEQ ID NO: 6, VL SEQ ID NO: 7 (antibody, V domains shown)
VH: QVQLKESGPGLVAPSQSLSITCTVSGFSLTSYGVSWVRQPPGKGLEWLGVIWGDGSTNYHSSLISRLSISKDNSKSQVFLKLNSLQTDDTATYYCARAFVYWGQGTLVTVSA
VL: QIVLTQSPAIMSASPGEKVTMTCSASSSVSYIHWYQQKSGTSPKRWIYDTSKLASGVPARFSGSGSGTSYSLTISSMEAEDAATYYCQQWSSNPPMLTFGAGTKLELK
Which “Net cell counts” value ([2]; 15 min at 37° C.) does the source give for B2 here?
The value was 267.

And the “Net cell counts” value ([2]; 30 min at 37° C.)?
Its value is 346.

What about the “Net cell counts” value ([2]; 60 min at 37° C.) of the same molecule?
Its value is 75.

And the “Net cell counts” value ([2]; 4 hr at 37° C.)?
The value was 93.

And the “Net cell counts” value ([2]; 4 hr, no perm)?
The value was 97.

B3: 2D4: anti-STn mouse monoclonal, IgG2b κ, from mouse #4407; VH SEQ ID NO: 10, VL SEQ ID NO: 11 (antibody, V domains shown)
VH: QVQLQESGPGLVAPSQSLSITCTVSGFSLISYGVNWVRQPPGKGLEWLGVIWGDGSTNYQSALISRLIISKDNSKSQVFLKLNSLQTDDTATYYCTKGFAYWGQGTLVTVSA
VL: QIVLTQSPAIMSASPGEKVTMTCSASSSVSYMHWFQQKSGTSPKRWIYDTSKLASGVPARFSGSGSGTSYSLTISSMEAEDAATYYCQQWSSNLLTFGAGTKLELK
With B3 as the molecule, how does the “activity in OV-90 cells” value [1] read?
Its value is “lack of effect”.

What about the “Net cell counts” value ([2]; 15 min at 37° C.) of the same molecule?
Its value is 1340.

And the “Net cell counts” value ([2]; 30 min at 37° C.)?
The value was 413.

And the “Net cell counts” value ([2]; 60 min at 37° C.)?
The value was 533.

And the “Net cell counts” value ([2]; 4 hr at 37° C.)?
Its value is 325.

And the “Net cell counts” value ([2]; 4 hr, no perm)?
Its value is 536.

What about the “level of internalization (comparison of antibodies)” value [2] of the same molecule?
The value was “greatest levels of internalization”.

B4: 7G9: anti-STn mouse monoclonal, IgG2b κ, from mouse #4407; VH SEQ ID NO: 12, VL SEQ ID NO: 9 (antibody, V domains shown)
VH: QVQLKESGPGLVAPSQNLSITCTVSGFSLTSYGVNWVRQPPGKGLEWLGVIWGDGSTNYHSALISRLIISKENSKSQVFLKLNSLQTNDTATYYCTKGFVYWGQGTLVTVSA
VL: QIVLTQSPAIMSASPGEKVTMTCSASSSVSYMHWYQQKSGTSPKRWIFDTSKLASGVPARFSGSGSGTSYSLTISSMEAEDAATYYCQQWSSNLLTFGAGTKLELK
For B4, which “activity in OV-90 cells” value [1] is on record?
Its value is “lack of effect”.

And the “Net cell counts” value ([2]; 15 min at 37° C.)?
Its value is 458.

And the “Net cell counts” value ([2]; 30 min at 37° C.)?
The value was 154.

What about the “Net cell counts” value ([2]; 60 min at 37° C.) of the same molecule?
The value was 126.

And the “Net cell counts” value ([2]; 4 hr at 37° C.)?
The value was 61.

And the “Net cell counts” value ([2]; 4 hr, no perm)?
The value was 145.

B5: 8C11: anti-STn mouse monoclonal, IgG2b κ, from mouse #4407; VH SEQ ID NO: 8, VL SEQ ID NO: 9 (antibody, V domains shown)
VH: QVQLKESGPGLVAPSQSLSITCTVSGFSLTSYGVSWVRQPPGKGLEWLGVIWGDGSTNYHSALISRLIISKDNSKSQVFLKLNSLQTDDTATYYCTKGFTYWGQGTLVTVSA
VL: QIVLTQSPAIMSASPGEKVTMTCSASSSVSYMHWYQQKSGTSPKRWIFDTSKLASGVPARFSGSGSGTSYSLTISSMEAEDAATYYCQQWSSNLLTFGAGTKLELK
Which “Net cell counts” value ([2]; 15 min at 37° C.) does the source give for B5 here?
The value was 934.

What about the “Net cell counts” value ([2]; 30 min at 37° C.) of the same molecule?
Its value is 297.

What about the “Net cell counts” value ([2]; 60 min at 37° C.) of the same molecule?
Its value is 122.

What about the “Net cell counts” value ([2]; 4 hr at 37° C.) of the same molecule?
The value was 49.

And the “Net cell counts” value ([2]; 4 hr, no perm)?
Its value is 160.

What about the “level of internalization (comparison of antibodies)” value [2] of the same molecule?
The value was “greatest levels of internalization”.
